Experimental data published in the RNAGym collection of RNA variant scans (doi:10.7554/elife.80360).

B1: HDV Ribozyme (parent)
chain: GGCCGGCAUGGUCCCAGCCUCCUCGCUGGCGCCGGCUGGGCAACAUUCCGAGGGGACCGUCCCCUCGGUAAUGGCGAAUGGGACCCA

Variants of: B1
Assay: self-cleavage, relative activity (ratio to wild type); higher = more cleavage; co-transcriptional

Variant | self-cleavage
C33U G73C | 0.31
G34U G73A | 0.109
G34U G73U | 0.0455
G34U C58U | 0.153
C33A U60C | 0.415
G34A U46G | 0.0332
G34A U46C | 0.215
G35C C64G | 0.426
G35U C58G | 0.323
G34A C41A | 0.157
G34A C41U | 0.217
G34U U47C | 0.234
G35A G50U | 0.629
G35C U37C | 0.18
G34C G81C | 0.115
G35A C75G | 0.218
C33G G52C | 0.128
G34U A51U | 0.169
C33A G40C | 0.217
G34U A77U | 0.163
C33A G38C | 0.151

Variant | self-cleavage
G34A G39U | 0.287
G34U A56G | 0.288
G35U A43C | 0.208
G34C G76U | 0.358
G34C G76C | 0.332
C33U C86U | 0.928
C33U C86G | 0.884
G34U A78C | 0.0369
G34U A78G | 0.111
C33A U79A | 0.128
G34A G38C | 0.166
C33U U37C | 0.923
C33G C36U | 0.0997
G35C C36G | 0.0978
G35C U60A | 0.192
G35A U72G | 0.251
G35C G40A | 0.271
C33U G82U | 0.266
C33G C44A | 0.0978
C33G C44U | 0.172
G34U C63G | 0.0475

Variant | self-cleavage
C33U G81A | 0.285
C33U G76C | 1.07
C33U G76U | 1.02
G35U A83U | 0.145
G34C C61U | 0.154
G34U U72G | 0.297
C33A C84G | 0.219
G34U G38A | 0.0702
G34U G38C | 0.194
G34U G38U | 0.248
C33U G53C | 0.727
C33U G53A | 0.95
C33G G38A | 0.0308
G34A A71U | 0.185
G34A A71G | 0.178
G35C G82A | 0.147
C33G C66G | 0.122
G34U C49A | 0.151
G34C A83U | 0.0755
G34C C64A | 0.0739
G35C C62G | 0.0594

Variant | self-cleavage
G35C C62U | 0.0665
C33A U72C | 0.151
G34A C63G | 0.133
G34U C85A | 0.164
G34U C85G | 0.128
G35C C49A | 0.119
C33U C62U | 0.816
C33G A42G | 0.0665
C33G A42C | 0.142
G34C G80A | 0.138
G34C G80C | 0.23
G34C C57U | 0.188
C33U G55C | 0.831
C33U G55U | 0.865
G34U U37G | 0.0519
C33G U46A | 0
G34A C58A | 0.203
G35U C41A | 0.3
G35U C41G | 0.188
G34A A87G | 0.159
G34A A87C | 0.126
